Laboratory results: article PMC11784222

Columns and labels:
[1] = biological target: N protein in the pVC vector (pVC-N) (HP-PRRSV-2 strain HuN4); assay: split reporter (BiFC, NanoBiT); BiFC in HEK293T cotransfected with pVN and pVC plasmids, 24 hpt; YFP signal by confocal microscopy and ratio of YFP-positive cells by flow cytometry
[2] = biological target: GP5 in the pVC vector (pVC-GP5) (HP-PRRSV-2 strain HuN4); assay: as above

Substance | percent of fluorescence-positive cells (BiFC) [1] | percent of fluorescence-positive cells (BiFC) [2]
nsp2 in the pVN vector (pVN-nsp2) (natural protein) | 32.1% | 
N protein in the pVN vector (pVN-N) (natural protein) |  | 3.87%
